From the DeepSol protein solubility set

Experiment: soluble on expression in E. coli; label from the status in PepcDB or PDB records

Row | Sequence | soluble on expression in E. coli
1 | MGSDKIHHHHHHMIQLAFTKTEISADTAVKQGAALRQMNELLERLSTAPKYHTLTKKDRAQLSREGYAADLVDNLVLITQRKEESTVTDNDNLVVGFTYAAFDPALYANETLKNHFKQMSQGCCCFCESFLMPTASGHISHYRPVQQLDLEGVEHTKPNSECSPYFSEAYQQENLVYVCSGCDVTHKAGRFPIAGERFPHVALSTENALLVNPYQENPRDFIRFNLCNGHAYPFDQACAFYADTQKLTEQDVEALLWKTPSAIPNQVDEAGALLTDSGVEQAFTFWLKSEASQRQSSRGAVTIVTLGLNRSDLVLARLMTLKQYHNDFITHKAALAQPLMPEDIATIAYRSLALDAFATWQSIANGTGSNLANNEGTNKGTNKGTNIGTNIGASEDTNVANSLPLMANTVLKLREQANNTVENPELDILLPSWFRCCLSYLVLESELQQTGKRRLVFLCNQDRLYGETDTEKCIFLSIKWQRDLHKVIKVRSKRNIWEASFSELANSRPHELINLFANNDVWVEGNFQPLA | not soluble
2 | TNLISVNSRSYRLSSAPTIVICVDGCEQEYINQAIQAGQAPFLAELTGFGTVLTGDCVVPSFTNPNNLSIVTGAPPSVHGICGNFFFDQETQEEVLMNDAKYLRAPTILAEMAKAGQLVAVVTAKDKLRNLLGHQLKGICFSAEKADQVNLEEHGVENILARVGMPVPSVYSADLSEFVFAAGLSLLTNERPDFMYLSTTDYVQHKHAPGTPEANAFYAMMDSYFKRYHEQGAIVAITADHGMNAKTDAIGRPNILFLQDLLDAQYGAQRTRVLLPITDPYVVHHGALGSYATVYLRDAVPQRDAIDFLAGIAGVEAVLTRSQACQRFELPEDRIGDLVVLGERLTVLGSAADKHDLSGLTVPLRSHGGVSEQKVPLIFNRKLVGLDSPGRLRNFDIIDLALNHLA | soluble
3 | MAHHHHHHMELNKLCSFLLRGNISHCENAPTGENAPKGENAQTGENAPKSENPPKSEHSQALFQDASGGKNNDSILDVIKKIPINPFIDSNEDLNKYKYGVEKKKIQRYTGVQVYEEEDKDHKKNQPVDYPFPVSKSVVFEKNKVNKSEDRININYSNIASDLYPEEGFKTPNRKKHFSSDWEMLLAHNHGLYNFKNTDHNTIVNKDMYALNTENDIRNKLNLYVERINVDNPNDACKYLAIEEYKCLLTHSFHMNPDVSNQKCVKWFNEYMQCKWDEHKLNYGYNYIENRRNKKSKAYIAAPDYQYS | not soluble
4 | MNYYMHHIGDYKSDASYLSLQEHGIYFLLLSHYYATEKPIPADKTHTYRIAYARTKKEKSAVDFVLDTFFSLQEDGWHNKRCDEEIAAYKEGDAWHEHKEANKNGQNTRTRRHRKERSRLFAELKDHQVTPEWNMPIKELRLLHKKTCHAPVTAVTPPVTPVTPVTPVTPVTPTQEESFTGPSSSLRSEERLIRAENETSIKELRQWNAKTNAKTGNAPVTAVTAKPLTINPLTIISSSLCSEESLVFAEDGNATGSTGKPKRSPHGSRLPDD | not soluble
5 | MSLIRVAIADDHQTLIDGISLRFDGNESIDLVFSANDGKDFLKQLKITPVDLVITDLKMPKMDGVTLAREIKRDFKNVKVIVLSMFDQPDVINKMVDVDVDGYILKTSSLDELVTAIGEVNKGKKYFDKHLHGITSLFDVNSTSSKTSLSNAEKDILNLIAEGKTSQEIANERACAVSTIHTHRRNMAHKLELYGKGELLRYAMDKKYNFEEGHHHHHH | soluble
6 | MAHHHHHHMLVRRSLSKKRSVIRGRNSRDLRVSSYIRVCTCTYVRNLCCRRLAYYDVCGESWSHARPFSPNSAMDYSLSVFRVLCPFVKTFFLFTLPCLTEGEGRVKSLIRWWEKKTCAEILMSSHAYLGLLRFICDLYTSFKGYVSRWHCPARRTAVLSCLSAAIGADGGVGPWLLLFVRAAVLRVLSLRQHPQTTQGEGRLARLVQPNQSGGHERHQQ | not soluble
7 | MFCFLQLPYHPNSSVHISTIDRITNSGRLYQYYSAEMTAEVIDFTKRNLEEAMNHNERRLLFRRSRSEPMTLTNENITMTSRTDPEWNMTVDSISIQSSFAEYQHRRKERLKKQEAHKTSEISLSSGPSELAMKGHTDFDAAIEFLDNKMPSTLSLTDSDNSHSSNDITSSQAKEISYEDEMRLFIEKTGHLVTNVFADPFDSDERKSRTEMWVEASTENLAEGGTTSDDVPTEKELELDMENNDILAESVVGTGTGELNDEKDEETVPVGLIPPVARQSTEDSILSSNVTVNSLLKSKLTINLKEASEALSEIDIADVDRFWDYLYEKDDIQKFSDELIYPIKMEIPSTSSSERSIGIALSPIKLDFAGIHVQKTGKIEKHIKMNSNEEKDRELDEPLEITDQTVETRFFELETTKNLEKINRGTTTSEHGNILIKTTASQTPVSQEVVQLVNYEPINFTKAQSDRNFDEKENMIRAFSFKLSESFYKDLKILVVERDRAKEAMDILPAKTMKELSEECNYYQTRYRVRIEQNKEKLDRRIEEVWKKLLKMPIESQEVIDFISVAHSELLTLNARRNLPDNM | not soluble
8 | MGSDKIHHHHHHMATFTRKAIMQTFLHILKNKPLDRITVKDICEQCEINRNTFYYYFKDIYDVLEAIFEDEVRLVMDEAKEGVTFHDAYARVAALILNNREAIMHIYASENGRVLRTYLDAVVTQVVRRFVLEKAEGYSLDDSDIAFITAFYSNGIVGSTIKWIERGSMMSRLPENITANGVGLSKSQYNRDIVKRIGDSFDATIYDMIECCL | not soluble
9 | MHTNERKTVVYEYQNEQEVVMKVKELELQGVRHDDIYVLAHEKHITKRIADDTNTNTIGVKEQGLGTSIINFFSKKGDELRNQMEEMGLSKEEANLYEEKLDQGKILLLVTAEVPMANDRQPQNYHSL | not soluble
10 | MLNLSSNQAAAVTVSETAELPEALEQLGLSNSRPVLVIVGGASQTSEADFLRIQSLFVEVLAPIAQSLGAYVVDGGTDAGVMRLMGDARSQINGQFPLIGVAPTAKVILPNQTTILADDATPLEPHHSHFVLIPGSKWGDESPWIVKVATLLANGLPSITVLINGGEISFLEHHHHHH | soluble
11 | ASSSYYEQYHSLNEIYSWIEVMTERYPDMVEKIHIGSSYEKYPLYVLKVSKKEQRAKNAMWIDCGIHAREWISPAFCLWFVGSVTYYYGKEKMHTNLLKHMDFYIMPVVNVDGYDYTWKKDRMWRKNRSLHEKNACVGTDLNRNFASKHWCGEGASSSSCSEIYCGTYPESEPEVKAVADFLRRNIKHIKAYISMHSYSQKIVFPYSYSRSRSKDHEELSLVAREAVFAMENIHRNIRYTHGSGSESLYLAPGGSDDWIYDLGIKYSFTFELRDKGKYGFLLPESYIRPTCSEALVAVAKIASHVVKNV | soluble
12 | MNMEEITPVDILLQLVKMGKVDPWNIDIVDLTEKYIKMLREMQELDLRISARAILAASILVRMKSEALLRGEEEENKRGEEEKIKVDVDPLVPPLRRVERYYTLDDLIEALMDALEEAEKRKPKKKKKVEIDEEIFVVDDFRVDIEKYVEELYKVVKKIYEKTKTPIKFWDLVPDVEPKIIARTFLYLLFLENMGRVEMIQEEPFGEILVVPV | soluble
13 | MGSDKIHHHHHHMQCMIDAMRSIVSLISHATVALAGSLAVAGCSLSPQPDHDTAATTPERLEARIHKVHRFDPQAFTQGLELDGDRLLVSTGFYGESGMFSMEVGNAPQQRTPLDPELFGEGITKTGDHIWQLTWRDGIAFKRDATTFQQLGTVSYEGEGWGLCHFDDRVIMSNGSDELIIRDPESFDERSRIRVTNQGNGVSNLNELECVPNDPATGKDTIYANVFLSTDIMRIDATTGAVTGIIDASSIPNNAVADTNNVLNGIAWIPSSDRFYITGKRWPDLYEVTFVSKMSNHGQS | not soluble
14 | MSLAAHYDGLEKRTGAPYYGKKAEKVCNCAECLVFRRDVETGRLRLSNAYFCKVRLCSMCAWRRSLKIASHNKLIVEEANREYKPSWIFLTLTVRNVDGDDLKQTITDMMKAWNRLFGYKVVKTSVLGYFRALEITKNHEQNTYHPHFHVLIPVKRSYFTGKRYIKQAEWTSLWKRAMKLDYTPIVHVQRVKGKKGIDAEGIEKEVRKEMEEQKAILEISKYPVKDTDVIRGNEVTEENLDTVYYLDDALNARRLIGYGGILKEIHKELNLTDAEDGDLVRIEEDDDAVANETFEVMARWHVGIKNYIIQEGHHHHHH | soluble
15 | RGKVFLEAQEKYEVNVIYLVSHALVETGNGKSELAKGIKDGKKRYYNFFGIGAFDSSAVRSGKSYAEKEQWTSPDKAIIGGAKFIRNEYFENNQLNLYQMRWNPENPAQHQYASDIRWADKIAKLMDKSYKQFGIKKDDIRQTYYK | not soluble
16 | MGYFSNAQRHAYESLLPRYGIPLTEEPVDLDSIFGRTAPGILEIGSGMGETTAEIARQHPEKDFIAIEVHAPGIGSLLGQIEKHRLTNLRIIPHDAKLVLQQMFTSESLDGIHIFFPDPWPKARHHKRRLIQPDFVSLLCDRLKPGGYLHIATDWEDYATHILHVLRSEERFVNTAVDYAARPAYRPLTKFEQRGMKLGHTIRDIIFTRTALEHHHHHH | soluble
17 | MEMILEEKDASDWIYRGEGGANLVLAYAGSSPLFVGKVIRIQKARRNDKAIKNANGVVSVLTSDEQHLWRENNELISSPNKEVLEQRYVKNVIIPLLGPKHVDAGVRVSVSKEFLECVDKKVTKQRPLWRVNAANVDTSHDSALILNDHSLFSQGISSGGDCISVEIKPKCGFLPTSRFIGKENMLKTSVSRFKMHQLLKLEYNEISAASAYDPLDLFSGSKESVLEAIKALYSTPQNNFRVFLNGSLILGGSGESTGRTSPEIGYAFEDALKGFIQSEDGHRTECFLQLVSDAVYGSGVLDRLLEIQKLDKLDIEGAIHSYYDLINQPCPICKEGKPLEAELSLHALPLDESLKIVKEYLIAATAKDCSIMISFQSRNAWDSEPSGDYVSLKPTNQTFDYKVHFIDLSLKPLKRMESYYKLDKKIISFYNRKQKAENTAEQIGNSKPSHS | soluble
18 | MLPEYGPLAPSEEELHLFGDVDRLKVLEIGCGSGHSLKYLDEKQAGELWGIDLSTKQIEAAQTVLKDSKAPVTLFESPMEVNPGLPTDYFDIVFSIYALGWTTNLTKTLENVYRYLKPGGSFIFSWEHPMYNRVRQHQHGLTVDKSYHEEGAYAHEAWSSPAIMQQYRLSTYLNHLIDHGFKVERVIEDVCLADAQKHTNGWYGYEKAQMIPTTLIIKCLKQLEHHHHHH | soluble
19 | MSYDRVKDFDLPELAVHLQPHGAVMIDRKSMFYFRLSGRGAQLAFLLSKNKNLHKTARIWEIMKKEEMSADQLKEELSAHPFTEAWTEGLLDQPLHVSGSLDSYLPISCTLQLTNACNLSCSFCYASSGKPYPEELSSEQWILVMQKLAAHGVADITLTGGEAKLIKGFKELVVVASSLFTNVNVFSNGLNWRDEEVELLSHLGNVSVQISIDGMDNTHDQLRGRKGGFKESMNTIKKLSEANIPVIVAMTINESNADEVSDVVEQCANAGAFIFRAGKTLSVGRATEGFKALDIDFEEMVQIQLREARHKWGDRLNIIDWEHEESSFTTDFCTPGYLAWYIRADGYVTPCQLEDLPLGHILEDSMADIGSPARLLQLKCEAKNCKCIGKIELSEPDLPFQKEVKAGIQE | not soluble
20 | MSLKIIVVGCGKIGYTIAKVLSEKKDIDVTVVDNNPNIFDKMVEPIDVIFISGNGANEKTLIEAGAKDADLIVSTTNADELNVLCCIMAERLGTKHSIARVRNPEYMLEFNKLWKDLGIDMVINPERQTAREISRILRYHAADDIVTFIGDRVELVSFKVSETPEYFVGKSVSQIFDNNMGILLAIVERENQALIPNGDLIFKESDIIWIMGRPSQIMKFFTLIKKGPKKGQEIMVIGGGKITHYLVELLNRHTTKANIKIIKKDRSKCESLYEALSSASLERRCLFIHGDGTNEELLIDEGIDTMDACVCLTDRDEENVFISLYAMRRGVKKVITKINYIHQNMAKSLGLWLGNIITPQYITAKTVIRYVDGLSGAVGRNIMTIHQIYSGDDGNVDAIEFQVNKKAKCIDTPIKKLKLKKGILIGCISRDFDIIIPSGETEIHIGDRVIIFSKNNDIRDLDDILENEGHHHHHH | soluble
